Measured values as given in patent US20090180995A1, “NOVEL ANTICOAGULANT POLYPEPTIDES AND COMPLEX” (National University of Singapore, priority 2005, published 2009).
“Also recorded” adds a separate entry of the source.

Tests used:
FVIIa-sTF = target: T1, FVIIa-sTF (Homo sapiens, UniProt P08709); test: Kinetics of inhibition of FVIIa-sTF amidolytic activity on S-2288; assay type: biochemical
T1 construct: made in house; host or cells: Saccharomyces cerevisiae (sTF); human plasma (FVIIa)
Protocol: Determination of kinetic constants for substrate hydrolysis—All studies were in assay buffer containing 50 mM Tris-HCl, pH 8.0, containing 150 mM NaCl, 10 mM CaCl2, and 1% BSA at 37° C. The kinetics of hydrolysis of the chromogenic substrate S-2288 by FVIIa-sTF was measured prior to examining the inhibitory effects of individual hemextins and the hemextin AB complex. Reactions were initiated by the addition of S-2288 (0-5 mM) to the individual wells of a 96-well plate containing FVIIa (30 nM) in complex with sTF (100 nM) in a final volume of 180 μl. Initial reaction velocities were measured as a linear increase in the absorbance at 405 nm (A405 nm) over 5 min, with a SPECTRAmax Plus® temperature-controlled microplate spectrophotometer (Molecular Devices, Sunnyvale, Calif.). The Km was derived from the nonlinear regression fit of the determined velocities, the value of which was 2.79 mM.
Kinetics of inhibition—The inhibitory potency of anticoagulant complex was measured over a range of substrate concentrations. Reactions were initiated by the addition of S-2288 to premixed enzyme-cofactor and inhibitor in the wells of a microtiter plate. Reactions with FVIIa-sTF contained 0.0125-0.05 μM of inhibitor complex and 0 to 3 mM of S-2288.
V=Vmax [S]/(1+[I]Ki)/{Km+[S]} (Eq. 1)

FVIIa = target: T2, FVIIa (Homo sapiens, UniProt P08709); test: ITC, binding of hemextin AB complex to FVIIa; conditions: 37° C.
T2 construct: from tissue; host or cells: human plasma
T2 sequence (P08709 61-212 limits assumed): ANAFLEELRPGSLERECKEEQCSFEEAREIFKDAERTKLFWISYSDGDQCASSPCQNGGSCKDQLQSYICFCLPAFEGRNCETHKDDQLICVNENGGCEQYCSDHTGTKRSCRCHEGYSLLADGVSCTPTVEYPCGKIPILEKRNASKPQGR
T2 sequence (P08709 213-466 limits assumed): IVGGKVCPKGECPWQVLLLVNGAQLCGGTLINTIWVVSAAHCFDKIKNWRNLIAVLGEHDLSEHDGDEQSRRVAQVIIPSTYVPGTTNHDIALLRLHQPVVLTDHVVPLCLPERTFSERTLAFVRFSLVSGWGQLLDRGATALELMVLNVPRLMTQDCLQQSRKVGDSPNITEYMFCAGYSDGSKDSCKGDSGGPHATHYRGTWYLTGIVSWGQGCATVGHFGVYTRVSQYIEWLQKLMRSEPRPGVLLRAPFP
Protocol: Isothermal titration calorimetry (ITC) studies—The interaction of anticoagulant hemextin AB complex with FVIIa was monitored with a VP-ITC titration calorimetric system (Microcal Inc., Northampton, Mass.). The instrument was calibrated using the built-in electrical calibration check. FVIIa (10 μM) in 50 mM Tris-HCl buffer and 10 mM CaCl2 (pH 7.4) in the calorimetric cell was titrated with reconstituted anticoagulant complex (0.2 mM) dissolved in the same buffer in a 250 μl injection syringe, with continual stirring at 300 rpm at 37° C. All the protein solutions were filtered and degassed prior to titration. […] The total heat content Q of the solution (determined relative to zero for the unliganded species) contained in the active cell volume, Vo, was calculated according to the following Equation 2, where K is the binding affinity constant, n is the number of sites, ΔH is the enthalpy of ligand binding, Mt and Xt is the bulk concentration of macromolecule and ligand, respectively, for the binding X+M ? […]
The change in heat (ΔQ) measured between the completions of two consecutive injections is corrected for dilution of the protein and ligand in the cell according to standard Marquardt methods. The free energy change (AG) during the interaction was calculated by using the relationship: ΔG=ΔH−TΔS=[…], where T is the absolute temperature and R is the universal gas constant.

T1 sequence (P13726 33-251 partner limits assumed, one chain of several): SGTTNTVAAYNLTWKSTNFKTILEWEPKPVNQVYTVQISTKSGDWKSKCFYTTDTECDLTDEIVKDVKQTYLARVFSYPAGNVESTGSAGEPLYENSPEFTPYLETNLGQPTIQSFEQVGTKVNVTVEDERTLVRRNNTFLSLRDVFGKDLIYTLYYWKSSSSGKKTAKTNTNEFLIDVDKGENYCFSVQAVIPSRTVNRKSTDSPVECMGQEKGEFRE

B1: hemextin AB complex: synergistic 1:1 tetrameric complex of hemextin A and hemextin B, reconstituted from equimolar proteins (protein)
chain 1: LKCKNKLVPFLSKTCPEGKNLCYKMTMLKMPKIPIKRGCTDACPKSSLLVKVVCCNKDKCN
chain 2: LKCKNKVVPFLKCKNKVVPFLCYKMTLKKVPKIPIKRGCTDACPKSSLLVNVMCCKTDKCN
- nature of inhibition of FVIIa-sTF activity (FVIIa-sTF; S-2288, Lineweaver-Burk plots): non-competitively; also recorded: non-competitive inhibitor
- Ki (FVIIa-sTF; S-2288, secondary plot): 25 nM
- Kcat (FVIIa-sTF; [Inhibitor] 0.0125 μM): 40.93 s⁻¹
- Vmax (FVIIa-sTF; [Inhibitor] 0.0125 μM): 7.37E−05
- Kcat (FVIIa-sTF; [Inhibitor] 0.0250 μM): 30.58 s⁻¹
- Vmax (FVIIa-sTF; [Inhibitor] 0.0250 μM): 5.51E−05
- Kcat (FVIIa-sTF; [Inhibitor] 0.05 μM): 20.87 s⁻¹
- Vmax (FVIIa-sTF; [Inhibitor] 0.05 μM): 3.75E−05
- ΔG of binding to FVIIa (FVIIa): -7.543 kcal/M
- K for the binding to FVIIa (FVIIa; 50 mM Tris-HCl, 10 mM CaCl2 (pH 7.4)): 411000 M⁻¹
